Assay results taken from patent US4605614A, “Method for measuring plasmin” (Nitto Boseki Co., Ltd., priority 1981, dated 1986).

Legend:
Assay in all cases: Km, Vmax and Vmax/Km of substrates for plasmin (pig)
Assay type in all cases: biochemical, Porcine (pig)
[1] = substrate: Cc1ccc(S(=O)(=O)NCCCC[C@@H](N)C(=O)N[C@@H](CC(C)C)C(=O)N[C@@H](CCCCN)C(=O)Nc2ccc([N+](=O)[O-])cc2)cc1; settings: other: TABLE 1, PNA substrates, plasmin (pig), 405 nm
Excerpt: (§1) The substrates produced by the above examples were used in the measurement of plasmin as follows: The principle of this measurement comprises quantitatively analyzing the decomposition product p-nitroaniline or 3-carboxy-4-hydroxyaniline produced by the enzymatic hydrolysis, by measuring the absorbance (O.D.) directly at 405 nm in the case of p-nitroaniline and, in the case of the 3-carboxy-4-hydroxyaniline at 615 nm after condensing it with 2,6-xylenol in the presence of an oxidant to develop a color.
(§2) For the measurements of these constants, the following method is adopted:
(§3) The enzyme and the substrate are mixed in a buffer solution and subjected to the hydrolysis for 30 seconds. The concentration of the substrate [S] is changed and the enzyme concentration is maintained constant. By measuring the absorbance (O.D.), the initial velocity of the hydrolysis can be determined. Where 1/V is plotted as a function of 1/[S], there is obtained a Lineweaver and Burk's linea from which graph the Vmax and Km can be determined.

[2] = substrate: Cc1ccc(S(=O)(=O)NCCCC[C@H](N)C(=O)N[C@@H](Cc2ccccc2)C(=O)N[C@@H](CCCCN)C(=O)Nc2ccc(O)c(C(=O)O)c2)cc1; settings: other: TABLE 2, CHA substrates, plasmin (pig), 2,6-xylenol 615 nm
Excerpt: as §1, §2, §3

[3] = substrate: Cc1ccc(C(=O)NCCCC[C@@H](N)C(=O)N[C@@H](Cc2ccccc2)C(=O)N[C@@H](CCCCN)C(=O)Nc2ccc(O)c(C(=O)O)c2)cc1; settings: other: TABLE 2, CHA substrates, plasmin (pig), 2,6-xylenol 615 nm
Excerpt: as §1, §2, §3

[4] = substrate: NCCCC[C@H](NC(=O)[C@H](Cc1ccccc1)NC(=O)[C@H](N)CCCCNC(=O)c1ccccc1)C(=O)Nc1ccc(O)c(C(=O)O)c1; settings: other: TABLE 2, CHA substrates, plasmin (pig), 2,6-xylenol 615 nm
Excerpt: as §1, §2, §3

[5] = substrate: Cc1ccc(CCNC(=O)CC[C@@H](N)C(=O)N[C@@H](Cc2ccccc2)C(=O)N[C@@H](CCCCN)C(=O)Nc2ccc([N+](=O)[O-])cc2)cc1; settings: other: TABLE 1, PNA substrates, plasmin (pig), 405 nm
Excerpt: as §1, §2, §3

[6] = substrate: Cc1ccc(S(=O)(=O)NCCCC[C@@H](N)C(=O)N[C@@H](CC(C)C)C(=O)N[C@@H](CCCCN)C(=O)Nc2ccc(O)c(C(=O)O)c2)cc1; settings: other: TABLE 2, CHA substrates, plasmin (pig), 2,6-xylenol 615 nm
Excerpt: as §1, §2, §3

[7] = substrate: Cc1ccc(CCNC(=O)CC[C@@H](N)C(=O)N[C@@H](Cc2ccccc2)C(=O)N[C@@H](CCCCN)C(=O)Nc2ccc(O)c(C(=O)O)c2)cc1; settings: other: TABLE 2, CHA substrates, plasmin (pig), 2,6-xylenol 615 nm
Excerpt: as §1, §2, §3

[8] = substrate: CC(C)[C@@H](N)C(=O)N[C@@H](Cc1ccccc1)C(=O)N[C@@H](CCCCN)C(=O)Nc1ccc(O)c(C(=O)O)c1; settings: other: TABLE 2, CHA substrates, plasmin (pig), 2,6-xylenol 615 nm
Excerpt: as §1, §2, §3

[9] = substrate: NCCCC[C@H](NC(=O)[C@H](Cc1ccccc1)NC(=O)[C@H](N)CCC(=O)NCCc1ccccc1)C(=O)Nc1ccc(O)c(C(=O)O)c1; settings: other: TABLE 2, CHA substrates, plasmin (pig), 2,6-xylenol 615 nm
Excerpt: as §1, §2, §3

[10] = substrate: CC(=O)NCCCC[C@@H](N)C(=O)N[C@@H](Cc1ccccc1)C(=O)N[C@@H](CCCCN)C(=O)Nc1ccc(O)c(C(=O)O)c1; settings: other: TABLE 2, CHA substrates, plasmin (pig), 2,6-xylenol 615 nm
Excerpt: as §1, §2, §3

[11] = substrate: NCCCC[C@H](NC(=O)[C@H](Cc1ccccc1)NC(=O)[C@H](N)CCCCNC(=O)c1ccc2ccccc2c1)C(=O)Nc1ccc(O)c(C(=O)O)c1; settings: other: TABLE 2, CHA substrates, plasmin (pig), 2,6-xylenol 615 nm
Excerpt: as §1, §2, §3

[12] = substrate: NCCCC[C@H](NC(=O)[C@H](Cc1ccccc1)NC(=O)[C@H](N)CC(=O)OC1CCCCC1)C(=O)Nc1ccc(O)c(C(=O)O)c1; settings: other: TABLE 2, CHA substrates, plasmin (pig), 2,6-xylenol 615 nm
Excerpt: as §1, §2, §3

[13] = substrate: Cc1ccc(S(=O)(=O)NCCCC[C@@H](N)C(=O)N[C@@H](Cc2ccccc2)C(=O)N[C@@H](CCCCN)C(=O)Nc2ccc([N+](=O)[O-])cc2)cc1
Excerpt: as §1, §2, §3

[14] = substrate: NCCCC[C@H](NC(=O)[C@H](Cc1ccccc1)NC(=O)[C@H](N)CCCCNC(=O)Cc1ccccc1)C(=O)Nc1ccc(O)c(C(=O)O)c1; settings: other: TABLE 2, CHA substrates, plasmin (pig), 2,6-xylenol 615 nm
Excerpt: as §1, §2, §3

[15] = substrate: CCCC(=O)NCCCC[C@@H](N)C(=O)N[C@@H](Cc1ccccc1)C(=O)N[C@@H](CCCCN)C(=O)Nc1ccc(O)c(C(=O)O)c1; settings: other: TABLE 2, CHA substrates, plasmin (pig), 2,6-xylenol 615 nm
Excerpt: as §1, §2, §3

[16] = substrate: Cc1cc(C)c(S(=O)(=O)NCCCC[C@@H](N)C(=O)N[C@@H](Cc2ccccc2)C(=O)N[C@@H](CCCCN)C(=O)Nc2ccc(O)c(C(=O)O)c2)c(C)c1; settings: other: TABLE 2, CHA substrates, plasmin (pig), 2,6-xylenol 615 nm
Excerpt: as §1, §2, §3

[17] = substrate: NCCCC[C@H](NC(=O)[C@H](Cc1ccccc1)NC(=O)[C@H](N)CCCCNC(=O)OCc1ccccc1)C(=O)Nc1ccc(O)c(C(=O)O)c1; settings: other: TABLE 2, CHA substrates, plasmin (pig), 2,6-xylenol 615 nm
Excerpt: as §1, §2, §3

[18] = substrate: CC(C)OC(=O)C[C@@H](N)C(=O)N[C@@H](Cc1ccccc1)C(=O)N[C@@H](CCCCN)C(=O)Nc1ccc(O)c(C(=O)O)c1; settings: other: TABLE 2, CHA substrates, plasmin (pig), 2,6-xylenol 615 nm
Excerpt: as §1, §2, §3

B1: plasmin (pig) (Sus scrofa) (protein)
chain: RIYLSECKTGNGKNYRGTTSKTKSGVICQKWSVSSPHIPKYSPEKFPLAGLEENYCRNPDNDEKGPWCYTTDPETRFDYCDIPECEDECMHCSGEHYEGKISKTMSGIECQSWGSQSPHAHGYLPSKFPNKNLKMNYCRNPDGEPRPWCFTTDPNKRWEFCDIPRCTTPPPTSGPTYQCLKGRGENYRGTVSVTASGHTCQRWSAQSPHKHNRTPENFPCKNLEENYCRNPDGETAPWCYTTDSEVRWDYCKIPSCGSSTTSTEYLDAPVPPEQTPVAQDCYRGNGESYRGTSSTTITGRKCQSWVSMTPHRHEKTPGNFPNAGLTMNYCRNPDADKSPWCYTTDPRVRWEYCNLKKCSETEQQVTNFPAIAQVPSVEDLSEDCMFGNGKRYRGKRATTVAGVPCQEWAAQEPHRHSIFTPETNPRAGLEKNYCRNPDGDDNGPWCYTTNPQKLFDYCDVPQCVTSSFDCGKPKVEPKKCPARVVGGCVSIPHSWPWQISLRHRYGGHFCGGTLISPEWVLTAKHCLEKSSSPSSYKVILGAHEEYHLGEGVQEIDVSKLFKEPSEADIALLKLSSPAIITDKVIPACLPTPNYVVADRTACYITGWGETKGTYGAGLLKEARLPVIENKVCNRYEYLGGKVSPNELCAGHLAGGIDSCQGDSGGPLVCFEKDKYILQGVTSWGLGCALPNKPGVYVRVSRFVTWIEEIMRRN
B1 was tested, and the Km [1] was 189 µM, the Km [2] was 292 µM and the Km [3] was 76.2 µM. For the same protein, the Km [4] was 334 µM, the Km [5] was 39.4 µM and the Km [6] was 1000 µM. For the same protein, the Km [7] was 417 µM, the Km [8] was 631 µM and the Km [9] was 397 µM. For the same protein, the Km [10] was 250 µM, the Km [11] was 325 µM and the Km [12] was 379 µM. For the same protein, the Km ([13]; other: Porcine Plasmin, comparison table in description) was 16 µM, the Km ([13]; other: TABLE 1, PNA substrates, plasmin (pig), 405 nm) was 15.8 µM and the Km [14] was 357 µM. The Km [15] was 239 µM, the Km [16] was 272 µM and the Km [17] was 496 µM. The Km [18] was 352 µM.
